Measurements reported in patent US20260042834A1 (HBM ALPHA THERAPEUTICS, published 2026).
Where “and” joins values, the source holds several entries; their conditions need not be identical. Equal values may be shown once.

T1: biotinylated CRH (human and mouse, not fully specified; biotinylated, position not stated)
T1 construct: also called Biotin-CRH; biotin-labeled CRH
T1 peptide: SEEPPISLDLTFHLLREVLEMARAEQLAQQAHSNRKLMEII

T2: N-Terminal CRH (human and mouse, C-terminal K-Biotin)
T2 construct: also called N-Ter-CRH (CT-Bion)
T2 peptide: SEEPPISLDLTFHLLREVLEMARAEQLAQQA

T3: CRH (CT Biotin) (human and mouse, C-terminal K-Biotin)
T3 construct: also called Peptide 4 (CRH-Biotin)
T3 peptide: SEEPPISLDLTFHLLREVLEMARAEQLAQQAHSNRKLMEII

T4: CRH (NT Biotin) (human and mouse, not fully specified; biotin at the N-terminus)
T4 peptide: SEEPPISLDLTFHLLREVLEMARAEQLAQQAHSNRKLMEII

T5: hUCN1 (NT Biotin) (human, UniProt P55089 83-122, biotin at the N-terminus)
T5 construct: also called human UCN1 (NT biotin)
T5 peptide (looked up): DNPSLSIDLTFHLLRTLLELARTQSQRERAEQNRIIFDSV

T6: human UCN2 peptide (human, UniProt Q96RP3 72-109, limits assumed, not fully specified; biotin at N- or C-terminus in the ELISA)
T6 construct: also called hUCN2; hUCN2 (NT Biotin)
T6 peptide (looked up): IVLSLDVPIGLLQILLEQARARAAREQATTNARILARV

T7: corticotropin-releasing hormone (CRH) peptide (human and mouse, not fully specified)
T7 peptide: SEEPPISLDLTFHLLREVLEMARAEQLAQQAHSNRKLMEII

T8: human UCN3 peptide (human, UniProt Q969E3 120-157, not fully specified; biotin at N- or C-terminus in the ELISA)
T8 construct: also called hUCN3; hUCN3 (NT Biotin)
T8 peptide (looked up): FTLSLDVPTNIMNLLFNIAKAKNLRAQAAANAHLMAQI

T9: hUCN1 (CT Biotin) (human, UniProt P55089 83-122, biotin at the C-terminus)
T9 construct: also called human UCN1 (CT biotin)
T9 peptide (looked up): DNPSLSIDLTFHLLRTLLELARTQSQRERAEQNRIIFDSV

T10: human UCN1 peptide (human, UniProt P55089 83-122)
T10 peptide (looked up): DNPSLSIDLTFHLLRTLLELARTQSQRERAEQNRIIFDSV

B1: PR005660 (antibody, human IgG1, kappa, V domains shown)
VH: EVQLVESGGVLVQPGGSLRLSCAASGFTFSSYWMTWVRQAPGKGLEWVANIKQEGSEKYYVDSVKGRFTISRDNAKNSLFLQMNSLRAEDTAVYYCARTLIFDYWGQGTLVTVSS
VL: DIVMTQSPLSLPVTPGEPASISCRSSQSLLHSTGYQSLEWYLQKPGQSPQLLIYLGSNRASGVPDRFSGSGSGTDFTLKISRVEAEDVGIYYCMQTLQTPITFGQGTRLEIKR
notes: PTM-removal variant of PR004290
B2: PR303394 (antibody, human IgG1, kappa, V domains shown)
VH: EVQLQQSGPELVKPGVSMKISCKASGYSFTDSTMNWVKQSHGKNLEWIGLIHPDNGGTIYNQKFKGKATLTVHKSSSTAYMELLSLTSEDSAVYYCANGFAYWGQGTLVTVSA
VL: DVVMTQTPLSLPVSLGDQASISCRSSQSLLHSNGNTYLHWYLQKPGQSPELLIYKVSNRFSGVPDRFSGSGSGTDFTLKISRVEAEDLGVYFCSQSTHVPLTFGAGTKLELKR
notes: also called analog of CTRND05
B3: PR302341-34 (antibody, human IgG1, kappa, V domains shown)
VH: QVQLVQSGAEVKKPGASVKVSCKASGYTFTDYFMKWVRQAPGQGLEWMGVINPNQGDIFYNQKFKGRVTMTVDKSISTAYMELSRLRSDDTAVYYCARGTDRALFAYWGQGTLVTVSS
VL: DVVMTQSPLSLPVTLGQPASISCRSGQSIVHSDANTYLEWYQQRPGQSPRLLIYKVSNRFSGVPDRFSGSGSGTDFTLKISRVEAEDLGVYYCFQGSHIPWTFGGGTKVEIKR
notes: Humanized, PTM-removed variant of PR302341
B4: PR302341-28 (antibody, human IgG1, kappa, V domains shown)
VH: QVQLVQSGAEVKKPGASVKVSCKASGYTFTDYFMKWVRQAPGQGLEWMGVINPNQGDIFYNQKFKGRVTMTVDKSISTAYMELSRLRSDDTAVYYCARGTDRALFAYWGQGTLVTVSS
VL: DVVMTQSPLSLPVTLGQPASISCRSGQSIVHSDGNTYLEWYQQRPGQSPRLLIYKVSNRFSGVPDRFSGSGSGTDFTLKISRVEAEDLGVYYCFQGSHIPWTFGGGTKVEIKR
notes: as for B3
B5: PR302341-48 (antibody, human IgG1, kappa, V domains shown)
VH: QVQLVQSGAEVKKPGASVKVSCKASGYTFTDYFMKWVRQAPGQGLEWMGVINPNQGDIFYNQKFKGRVTMTVDKSTSTAYMELSSLRSEDTAVYYCARGTDRALFAYWGQGTLVTVSS
VL: DVVMTQTPLSSPVTLGQPASISCRSGQSIVHSDANTYLEWYQQRPGQPPRLLIYKVSNRFSGVPDRFSGSGAGTDFTLKISRVEAEDLGVYYCFQGSHIPWTFGGGTKVEIKR
notes: as for B3
B6: PR302341-55 (antibody, human IgG1, kappa, V domains shown)
VH: QVQLVQSGAEVKKPGASVKVSCKASGYTFTDYFMKWVRQAPGQRLEWMGVINPNNADIFYNQKFKGRVTITRDTSASTAYMELSSLRSEDTAVYYCARGTDRALFAYWGQGTLVTVSS
VL: DVVMTQSPLSLPVTLGQPASISCRSGQSIVHSDGNTYLEWYQQRPGQSPRLLIYKVSNRFSGVPDRFSGSGSGTDFTLKISRVEAEDLGVYYCFQGSHIPWTFGGGTKVEIKR
notes: as for B3
B7: PR302341-60 (antibody, human IgG1, kappa, V domains shown)
VH: QVQLVQSGAEVKKPGASVKVSCKASGYTFTDYFMKWVRQAPGQRLEWMGVINPNQGDIFYNQKFKGRVTITRDTSASTAYMELSSLRSEDTAVYYCARGTDRALFAYWGQGTLVTVSS
VL: DVVMTQSPLSLPVTLGQPASISCRSGQSIVHSDANTYLEWYQQRPGQSPRLLIYKVSNRFSGVPDRFSGSGSGTDFTLKISRVEAEDLGVYYCFQGSHIPWTFGGGTKVEIKR
notes: as for B3
B8: PR302309-11 (antibody, human IgG1, kappa, V domains shown)
VH: QIQLVQSGSELKKPGASVKVSCKASGYTFTNYGMNWVRQAPGQGLEWMGWINTYTGEPIYTDDFKGRFVFSLDTSVSTAYLQISSLKAEDTAVYYCSRSTMITTGGVFAYWGQGTLVTVSS
VL: DIVMTQTPLSSPVTLGQPASISCRSSQTIVHSDGNTYLEWLQQRPGQPPRLLIYKVSNRFSGVPDRFSGSGAGTDFTLKISRVEAEDVGVYYCFQGSHVPWTFGGGTKVEIKR
notes: Humanized variant of PR302309

Experiments:
[1] = molecular target: T1, biotinylated CRH; experiment: Octet BLI, biotinylated CRH on SA sensor
[2] = molecular target: T2, N-Terminal CRH; experiment: ELISA, biotin peptide on streptavidin plate
Protocol: (§1) Streptavidin (Thermo, Cat: 21125) was diluted in PBS to a concentration of 2 μg/ml. 100 μl of diluted streptavidin was added per well to ELISA microplates, and the plates were incubated overnight at 4° C. […] 100 μL of 3,3′,5,5′-tetramethylbenzidine (TMB) substrate (Biopanda, Cat: TMB-S-003) was added, and the plates were incubated at room temperature for 15 minutes. 100 μL of ELISA stopping solution (Solarbio, Cat #: C1058) was added to terminate the reaction, and the optical density at 450 nm (OD450 nm) was determined by an ELISA plate reader (Molecular Devices, Spectra max 384 plus).

[3] = molecular target: T3, CRH (CT Biotin); experiment: ELISA, biotin peptide on streptavidin plate
Protocol: as §1

[4] = molecular target: T4, CRH (NT Biotin); experiment: ELISA, biotin peptide on streptavidin plate
Protocol: as §1

[5] = molecular target: T5, hUCN1 (NT Biotin); experiment: ELISA, biotin peptide on streptavidin plate
Protocol: as §1

[6] = molecular target: T6, human UCN2 peptide; experiment: ELISA on streptavidin-captured hUCN2 (NT biotin) and hUCN2 (CT biotin), mAb at 100 nM and 10 nM, OD450
Protocol: (§2) Streptavidin (Thermo, Cat: 21125) was diluted in PBS with a concentration of 2 μg/mL. 100 μL of diluted streptavidin was added per well to ELISA microplates, and the plates were incubated overnight at 4° C. Plates were blocked with ELISA blocking solution (containing 2% w/v BSA, 0.05% (v/v) Tween-20, pH 7.4 PBS buffer) at 37° C. for 1 hour, and then incubated with either 1 μg/mL hUCN1 (NT Biotin), hUCN1 (CT Biotin), hUCN2 (NT Biotin), hUCN2 (CT Biotin), hUCN3 (NT Biotin), or hUCN3 (CT Biotin) for 1 hour at 37° C. […] 100 μl of TMB Substrate (Biopanda, Cat: TMB-S-003) was added, and the plates were incubated at room temperature for 15 minutes. 100 μL of ELISA stopping solution (Solarbio, Cat #: C1058) was then added to terminate the reaction, and the OD450 nm was determined by an ELISA plate reader (Molecular Devices, Spectra max 384 plus).

[7] = molecular target: T7, corticotropin-releasing hormone (CRH) …; experiment: cell-based or functional assay
[8] = molecular target: T8, human UCN3 peptide; experiment: ELISA on streptavidin-captured hUCN3 (NT biotin) and hUCN3 (CT biotin), mAb at 100 nM and 10 nM, OD450
Protocol: as §2

[9] = molecular target: T9, hUCN1 (CT Biotin); experiment: ELISA, biotin peptide on streptavidin plate
Protocol: as §1

[10] = molecular target: T10, human UCN1 peptide; experiment: cell-based or functional assay
[11] = molecular target: T6, human UCN2 peptide; experiment: ELISA on streptavidin-captured hUCN2 (NT biotin) and hUCN2 (CT biotin), mAb at 100 nM and 10 nM; axis labelled RLU, scale 0-4
Protocol: as §2

Binder | Kd [1] | EC50 [2] [nM] | EC50 [3] [nM] | EC50 [4] | EC50 [5] | binding result [6] | CHO-CRE-hCRHR1 0.5 nM CRH IC50 [7] [nM] | binding result [8] | EC50 [9] | CHO-CRE-hCRHR1 1 nM hUCH1 IC50 [10] | binding result [11] | koff [1] [s⁻¹] | kon [1] [M⁻¹ s⁻¹] | hUCN1 IC50/ CRH IC50 [10] [fold]
B1 | 0.12 nM and 0.0409 nM | 0.076 | 0.054 | 0.028 nM | 9.37 nM | no binding (tested: 100 nM) | 10.3 | no binding (tested: 100 nM) |  |  |  |  |  | 
B2 | 0.0136 nM |  |  | 0.028 nM | 0.018 nM | no binding (tested: 100 nM) | 2.77 | no binding (tested: 100 nM) | 0.022 nM | 42.5 nM |  |  |  | 
B3 | < 0.001 nM |  | 0.027 | 0.025 nM and 0.038 nM | 0.019 nM and 0.016 nM |  | 0.616 |  | 0.03 nM and 0.022 nM | 21.9 nM and 30 nM | no binding (tested: 100 nM) |  |  | 
B4 | < 0.001 nM |  | 0.037 | 0.052 nM | 0.026 nM |  | 0.267 |  | 0.032 nM | 33 nM | no binding (tested: 100 nM) | < 1e-07 | 2.63e+06 | 124
B5 | < 0.001 nM |  | 0.028 | 0.045 nM | 0.017 nM |  | 0.507 |  | 0.023 nM | 30 nM | no binding (tested: 100 nM) | < 1e-07 | 1.04e+06 | 59
B6 | < 0.001 nM |  | 0.019 | 0.022 nM | 0.013 nM |  | 0.105 |  | 0.018 nM | 28 nM | no binding (tested: 100 nM) | < 1e-07 | 1.2e+06 | 267
B7 | 0.0142 nM |  | 0.036 | 0.043 nM | 0.026 nM |  | 0.878 |  | 0.036 nM | 71 nM | no binding (tested: 100 nM) | 3.35e-05 | 2.49e+06 | 81
B8 | 0.0551 nM | 0.028 | 0.032 | 0.032 nM | 0.078 nM | no binding (tested: 100 nM) | 2.12 | no binding (tested: 100 nM) | 0.451 nM |  |  | 8.48e-06 | 154000 | 
